Test [1] addresses T1, human MET on cells (human, UniProt P08581 25-1390). Nature of the test: cell-based or functional assay.
Test [2] deals with T1, human MET on cells. Kind of test: cell-based or functional assay. This is another data set of the same source.
Test [3] addresses T2, human MET (exon14 skip mutation) on NCI-H596 cells (human, UniProt P08581 25-1390). Kind of test: cell-based or functional assay.
Test [4] addresses T1, human MET on cells. Nature of the test: cell-based or functional assay. This is another data set of the same source.
Test [5] deals with T1, human MET on cells. Kind of test: cell-based or functional assay. The source holds these as a separate data set.
In test [6] the target is T2, human MET (exon14 skip mutation) on …. Kind of test: cell-based or functional assay. The source holds these as a separate data set.
Test [7] addresses T3, MET (c-Met, hepatocyte growth factor receptor) on cells (human, UniProt P08581 25-1390). Kind of test: cell-based or functional assay.
For test [8], the target named is T3, MET (c-Met, hepatocyte growth factor …). Nature of the test: cell-based or functional assay. This is another data set of the same source.
Test [9] deals with T4, hMet.mmh (human MET extracellular domain with C-terminal myc-myc-hexahistidine tag) (human, UniProt P08581 309-914; P08581 27-307).
T4 construct: soluble monomeric MET; also called monomeric human MET
Nature of the test: SPR 37C, antibody captured. As to the method: (§1) The anti-Met antibodies tested in this example were bivalent monospecific binders of MET.
(§2) Kinetic association (kₐ) and dissociation (kd) rate constants were determined by fitting the real-time sensorgrams to a 1:1 binding model using Scrubber 2.0c curve fitting software. Binding dissociation equilibrium constant (KD) and dissociative half-life (t1/2) were calculated from the kinetic rate constants as: […]

Test [10] addresses T5, hMET.mFc (dimeric human MET) (human, UniProt P08581 27-307).
T5 construct: soluble dimeric MET protein
Kind of test: SPR 37C, antibody captured. As to the method: as §1, §2

In test [11] the target is T4, hMet.mmh (human MET extracellular …). Kind of test: SPR 37C, antibody captured. As to the method:
(§3) Kinetic association (kₐ) and dissociation (kd) rate constants were determined as described in Example 3.
The source holds these as a separate data set.

The target is the same in test [12]. Kind of test: SPR 37C, antibody captured. As to the method:
as §3
This is another data set of the same source.

Test [13] has as its target T1, human MET on cells. Kind of test: flow cytometry, 10 µg/ml antibody on MKN-45 cells, Alexa647 anti-human secondary. As to the method: (§4) After one additional wash with FACS buffer, samples were fixed with Cytofix (BD Biosciences, #554655), filtered with FACS buffer and run on an iQue flow cytometer (Intelicyte). Mean fluorescence intensity (MFI) data was determined using FlowJo software (FlowJo LLC).

Test [14] has as its target T1, human MET on cells. Kind of test: flow cytometry, 10 µg/ml antibody on MDA-MB-231 cells, Alexa647 anti-human secondary. As for the experimental part:
as §4

The target of test [15] is T1, human MET on cells. Kind of test: flow cytometry, 10 µg/ml antibody on Hs746t cells, Alexa647 anti-human secondary. As to the method:
as §4

For test [16], the target named is T1, human MET on cells. Nature of the test: cell-based or functional assay. The source holds these as a separate data set.
The target of test [17] is T1, human MET on cells. Kind of test: flow cytometry, 10 µg/ml antibody on A549 cells, Alexa647 anti-human secondary. As for the experimental part:
as §4

Test [18] concerns the target T1, human MET on cells. Nature of the test: cell-based or functional assay. This is another data set of the same source.
The target in test [19] is T1, human MET on cells. Nature of the test: flow cytometry, 10 µg/ml antibody on EBC-1 cells, Alexa647 anti-human secondary. As for the experimental part:
as §4

The target in test [20] is T1, human MET on cells. Kind of test: flow cytometry, 10 µg/ml antibody on U87MG cells, Alexa647 anti-human secondary. As to the method: as §4
Test [21] deals with T1, human MET on cells. Nature of the test: flow cytometry, 10 µg/ml antibody on SNU-5 cells, Alexa647 anti-human secondary. As for the experimental part:
as §4

Read-outs that look alike come from different tables or passages of the source.

T5 sequence (P08581 other isoform, or with tags, fused parts or gaps limits assumed, chain 1 of 2): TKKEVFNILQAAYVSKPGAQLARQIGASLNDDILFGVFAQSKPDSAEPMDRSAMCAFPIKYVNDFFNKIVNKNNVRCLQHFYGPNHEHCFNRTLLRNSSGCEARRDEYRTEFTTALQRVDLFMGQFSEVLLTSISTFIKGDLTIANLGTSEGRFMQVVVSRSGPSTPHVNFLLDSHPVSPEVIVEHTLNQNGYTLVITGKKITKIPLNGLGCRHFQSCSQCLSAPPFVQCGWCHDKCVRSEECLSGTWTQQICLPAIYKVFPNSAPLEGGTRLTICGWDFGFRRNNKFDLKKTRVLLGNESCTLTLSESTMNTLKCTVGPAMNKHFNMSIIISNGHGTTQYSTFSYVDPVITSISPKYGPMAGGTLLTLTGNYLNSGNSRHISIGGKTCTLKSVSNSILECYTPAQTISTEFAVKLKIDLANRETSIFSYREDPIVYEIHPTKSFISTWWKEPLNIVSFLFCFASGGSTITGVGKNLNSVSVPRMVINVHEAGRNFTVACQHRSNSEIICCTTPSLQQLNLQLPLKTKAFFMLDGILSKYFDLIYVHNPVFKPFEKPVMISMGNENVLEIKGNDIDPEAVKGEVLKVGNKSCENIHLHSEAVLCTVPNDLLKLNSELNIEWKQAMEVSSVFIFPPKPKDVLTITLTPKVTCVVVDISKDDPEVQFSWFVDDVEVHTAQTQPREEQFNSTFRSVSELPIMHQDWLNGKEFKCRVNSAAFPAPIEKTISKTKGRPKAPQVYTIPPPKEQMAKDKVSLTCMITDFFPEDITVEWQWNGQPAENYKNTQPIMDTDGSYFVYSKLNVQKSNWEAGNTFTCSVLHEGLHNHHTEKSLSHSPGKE
T5 sequence (P08581 27-307 limits assumed, chain 2 of 2): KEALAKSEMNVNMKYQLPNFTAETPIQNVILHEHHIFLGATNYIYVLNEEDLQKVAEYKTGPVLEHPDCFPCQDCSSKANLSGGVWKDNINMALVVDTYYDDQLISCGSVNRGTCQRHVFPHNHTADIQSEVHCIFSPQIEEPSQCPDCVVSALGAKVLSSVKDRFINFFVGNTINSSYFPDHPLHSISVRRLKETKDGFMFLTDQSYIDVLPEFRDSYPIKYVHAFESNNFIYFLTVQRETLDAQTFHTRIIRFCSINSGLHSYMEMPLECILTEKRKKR
T1 sequence (P08581 25-1390 limits assumed, form in doubt): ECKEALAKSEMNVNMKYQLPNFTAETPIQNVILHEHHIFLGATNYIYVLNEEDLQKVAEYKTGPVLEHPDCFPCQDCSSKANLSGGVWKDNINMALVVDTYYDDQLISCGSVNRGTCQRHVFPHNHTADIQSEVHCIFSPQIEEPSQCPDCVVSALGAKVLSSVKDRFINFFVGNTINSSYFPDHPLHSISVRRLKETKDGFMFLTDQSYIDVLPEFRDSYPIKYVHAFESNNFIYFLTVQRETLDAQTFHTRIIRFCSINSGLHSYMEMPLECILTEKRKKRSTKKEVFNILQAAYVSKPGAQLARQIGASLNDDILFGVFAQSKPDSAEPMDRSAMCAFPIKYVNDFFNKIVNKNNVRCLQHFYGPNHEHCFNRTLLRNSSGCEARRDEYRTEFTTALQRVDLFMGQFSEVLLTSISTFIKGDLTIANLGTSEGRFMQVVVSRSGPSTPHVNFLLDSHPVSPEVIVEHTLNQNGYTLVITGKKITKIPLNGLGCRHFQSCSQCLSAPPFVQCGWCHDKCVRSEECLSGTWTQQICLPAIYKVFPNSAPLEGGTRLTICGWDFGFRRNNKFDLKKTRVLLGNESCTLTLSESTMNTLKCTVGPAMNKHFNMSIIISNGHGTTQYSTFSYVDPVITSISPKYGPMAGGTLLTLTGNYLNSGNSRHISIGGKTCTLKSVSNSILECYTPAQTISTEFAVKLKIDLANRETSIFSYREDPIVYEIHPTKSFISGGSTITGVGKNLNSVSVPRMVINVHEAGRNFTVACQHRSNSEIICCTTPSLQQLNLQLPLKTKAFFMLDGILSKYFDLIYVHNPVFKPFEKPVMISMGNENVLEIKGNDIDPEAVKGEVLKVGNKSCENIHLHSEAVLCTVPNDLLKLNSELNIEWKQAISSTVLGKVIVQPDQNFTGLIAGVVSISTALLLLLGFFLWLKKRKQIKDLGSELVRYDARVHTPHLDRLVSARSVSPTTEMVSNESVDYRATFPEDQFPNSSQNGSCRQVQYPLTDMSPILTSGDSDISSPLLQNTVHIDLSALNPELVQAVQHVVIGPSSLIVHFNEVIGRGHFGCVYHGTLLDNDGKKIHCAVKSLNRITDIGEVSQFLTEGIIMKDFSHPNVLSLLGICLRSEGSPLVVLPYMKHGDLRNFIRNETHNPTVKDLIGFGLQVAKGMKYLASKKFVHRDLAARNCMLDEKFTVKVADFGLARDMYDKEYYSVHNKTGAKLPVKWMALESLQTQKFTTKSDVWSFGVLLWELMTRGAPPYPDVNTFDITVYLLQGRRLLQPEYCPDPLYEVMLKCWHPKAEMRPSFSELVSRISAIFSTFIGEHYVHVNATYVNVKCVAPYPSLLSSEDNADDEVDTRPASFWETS
T3 sequence (P08581 25-1390 limits assumed, form in doubt): as above
T4 sequence (P08581 other isoform, or with tags, fused parts or gaps limits assumed, chain 1 of 2): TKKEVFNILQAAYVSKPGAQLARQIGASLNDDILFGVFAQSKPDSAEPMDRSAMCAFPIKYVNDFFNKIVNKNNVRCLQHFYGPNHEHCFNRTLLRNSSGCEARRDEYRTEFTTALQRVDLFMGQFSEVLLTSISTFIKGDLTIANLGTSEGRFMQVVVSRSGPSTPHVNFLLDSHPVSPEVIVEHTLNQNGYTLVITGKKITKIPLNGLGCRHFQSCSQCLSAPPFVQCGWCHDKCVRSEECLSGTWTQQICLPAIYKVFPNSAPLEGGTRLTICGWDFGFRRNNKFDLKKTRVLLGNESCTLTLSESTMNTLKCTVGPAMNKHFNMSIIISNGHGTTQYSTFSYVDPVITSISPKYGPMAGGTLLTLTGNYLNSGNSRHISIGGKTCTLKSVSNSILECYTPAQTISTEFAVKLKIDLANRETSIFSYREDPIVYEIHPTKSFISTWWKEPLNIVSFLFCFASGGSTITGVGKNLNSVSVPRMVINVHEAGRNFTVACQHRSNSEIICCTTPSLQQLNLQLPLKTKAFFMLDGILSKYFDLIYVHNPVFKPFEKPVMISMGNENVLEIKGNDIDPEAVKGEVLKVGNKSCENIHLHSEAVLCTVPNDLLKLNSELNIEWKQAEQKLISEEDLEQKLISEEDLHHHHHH
T4 sequence (P08581 27-307 limits assumed, chain 2 of 2): as the sequence (P08581 27-307 limits assumed, chain 2 of 2) above

B1: H4H14639D (bispecific antibody, human IgG4, V domains shown)
VH 1: EVQLVESGGGLVQPGTSLRLSCAASGFTFDDYAMHWVRQAPGKGLEWVSGITWNSYNIDYADSVKGRFTISRDNAKNSLYLQMNSLRAEDTALYYCAKDDDYSNYVYFDYWGQGTLVTVSS
VH 2: EVQLVESGGGLVQPGGSLRLSCAASGFIVTTNYMTWLRQAPGKGLEWVSLIYSSGHTYYADSVKGRFTISRHNSKNTLYLQMDSLRAEDTAVYYCASAFAADVFDIWGQGTMVTVSS
VL: not shown
notes: MET x MET bispecific, human IgG4; also called No. 122; MET×MET bispecific antibody
Turning to B1, in the test with human MET on cells [1], the “Relative Cell Growth (n = 3), EBC-1 cells, 0.1 µg/mL H4H14639D” value is 0.397 relative to control and the “Relative Cell Growth (n = 3), EBC-1 cells, 1 µg/mL H4H14639D” value was 0.462 relative to control. In the test with human MET on cells [2], the “Relative Cell Growth (n = 3), Hs746T cells, 5 µg/ml, 5 days” value is 0.647 normalized to control. Further, the “Relative MET Level, NCI-H596 cells, 18 h” value in [3] was 0.24 relative to control (hFc). In the test with human MET on cells [4], the “IC50, 6-day in vitro cytotoxicity, A549” value turned out to be 0.17 nM; the “IC50, 6-day in vitro cytotoxicity, EBC-1” value is 0.37 nM; the “IC50, 6-day in vitro cytotoxicity, Hs746t” value stood at 0.44 nM; the “Max % Kill, 6-day in vitro cytotoxicity, A549” value is 29%. Further, in the test with human MET on cells [4], the “Max % Kill, 6-day in vitro cytotoxicity, EBC-1” value was found to be 66% and the “Max % Kill, 6-day in vitro cytotoxicity, Hs746t” value was 35%. Further, the “Relative Cell Growth (n = 3), SNU5 cells, 5 µg/ml, 5 days” value with human MET on cells [5] is 0.271 normalized to control. In test [6], the “Relative Cell Growth (n = 3), NCI-H596 cells in soft agar, 5 µg/ml, two weeks” value is 1.07 normalized to control.

B2: H4H13312P2 (antibody, human IgG4, V domains shown)
VH: B1 VH 2
VL: not shown
notes: human IgG4 Fc (H4H), bivalent monospecific; also called parental antibody 2; M2
Regarding B2, the “EC50 (read off the curve); HGF-independent SRE-driven luciferase signal in HEK293T cells” value in [7] was approximately 0.5 nM. In [8], the “IC50 (read off the curve); blocking of HGF-dependent SRE-driven luciferase signal in HEK293T cells” value was approximately 0.4 nM. Besides, the Kd is 227 nM in [9] and 2.79 nM in test [10]. Further, the T½ in test [9] is 0.7 min; in test [10] it was 6.7 min; in test [11] it was 1.4 min.

B3: H4H14639D (bispecific antibody, human IgG4, V domains shown)
VH 1: B1 VH 1
VH 2: B1 VH 2
VL: not shown
notes: MET x MET bispecific, expressed as human IgG4; also called bispecific antibody No. 122; MET×MET bispecific antibody
Turning to B3, the T½ in test [12] and in [11] was 70.8 min throughout. Moreover, the koff in test [12] and in test [11] was 0.000163 s⁻¹ throughout. Also, the “IC50 (read off the curve); blocking of HGF-dependent SRE-driven luciferase signal in HEK293T cells” value in test [8] is approximately 0.4 nM.

B4: H4H14635D (bispecific antibody, human IgG4, V domains shown)
VH 1: QVQLVESGGGVVQPGRSLRVSCVVSGFTFSSFGMHWVRQAPDKGLEWVAVIWYDGSNDYYSDSVKGRFTISRDNSKNTLFLQMNRLRAEDTAVYYCARANNWNRFDAFDLWGQGTMVTVSS
VH 2: B1 VH 2
VL: not shown
notes: MET x MET bispecific, human IgG4; also called No. 42
For the molecule B4, in the test with human MET on cells [13], the “FACS Binding (MFI Fold Above Isotype Control)” value was 183 fold above isotype control. For the same molecule, the “FACS Binding (MFI Fold Above Isotype Control)” value with human MET on cells [14] was 11 fold above isotype control. In addition, the “FACS Binding (MFI Fold Above Isotype Control)” value with human MET on cells [15] is 39 fold above isotype control. In the test with human MET on cells [16], the “% Inhibition, HEK293/SRE-Luc Blocking Activity (HGF, 1 h mAb pre-bind)” value amounted to 85%; the “EC50, Ligand (HGF)-Independent HEK293/SRE-Luc Activation” value is 1.4 nM; the “Fold Response, Ligand (HGF)-Independent HEK293/SRE-Luc Activation” value is 2.2 fold; the “IC50, HEK293/SRE-Luc Blocking Activity (HGF, 1 h mAb pre-bind)” value was 0.19 nM. Besides, the “FACS Binding (MFI Fold Above Isotype Control)” value with human MET on cells [17] is 12 fold above isotype control. For the same molecule, the “Relative MET Level, SNU5 cells, 18 hrs” value with human MET on cells [18] was 0.27 relative to control (hFc). The “FACS Binding (MFI Fold Above Isotype Control)” value in the test with human MET on cells [19] was 263 fold above isotype control. In the test with human MET on cells [4], the “IC50, 6-day in vitro cytotoxicity, A549” value is more than 100 nM; the “IC50, 6-day in vitro cytotoxicity, EBC-1” value is more than 100 nM; the “IC50, 6-day in vitro cytotoxicity, Hs746t” value was more than 100 nM; the “Max % Kill, 6-day in vitro cytotoxicity, A549” value stood at 0%. Further, in the test with human MET on cells [4], the “Max % Kill, 6-day in vitro cytotoxicity, EBC-1” value was 11% and the “Max % Kill, 6-day in vitro cytotoxicity, Hs746t” value stood at 7%. In the test with human MET on cells [20], the “FACS Binding (MFI Fold Above Isotype Control)” value is 18 fold above isotype control. Further, in the test with human MET on cells [21], the “FACS Binding (MFI Fold Above Isotype Control)” value is 477 fold above isotype control.

B5: H4H13306P2 (antibody, human IgG4, V domains shown)
VH: B1 VH 1
VL: not shown
notes: human IgG4 Fc (H4H), bivalent monospecific; also called parental antibody 1; M1
On to B5, for which the Kd in test [9] worked out at 109 nM; in test [10] it was 2.15 nM. Further, the T½ was 0.7 min in test [9], 4.4 min in test [10] and 0.7 min in [11].

(Values after patent US20220040319A1 (Regeneron, published 2022).)
